Measured values reported in patent publication US20240358755A1 (IMMATICS BIOTECHNOLOGIES, published 2024).

biological target: T1, HLA-B*07:02 (human); assay: UV peptide exchange, anti-b2m ELISA; exchange yield grade
T1 construct: Peptide-receptive monomer in the UV-ligand exchange assay
Excerpt: (§1) Candidate peptides for T cell based therapies according to the present invention were further tested for their MHC binding capacity (affinity). The individual peptide-MHC complexes were produced by UV-ligand exchange, where a UV-sensitive peptide is cleaved upon UV-irradiation and exchanged with the peptide of interest as analyzed. Only peptide candidates that can effectively bind and stabilize the peptide-receptive MHC molecules prevent dissociation of the MHC complexes. To determine the yield of the exchange reaction, an ELISA was performed based on the detection of the light chain (β2m) of stabilized MHC complexes. The assay was performed as generally described in Rodenko et al. (Rodenko et al., 2006).
(§2) 96 well MAXISorp plates (NUNC) were coated over night with 2 μg/ml streptavidin in PBS at room temperature, washed 4× and blocked for 1 h at 37° C. in 2% BSA containing blocking buffer. […] Peptide-MHC monomers of the UV-exchange reaction were diluted 100-fold in blocking buffer. Samples were incubated for 1 h at 37° C., washed four times, incubated with 2 μg/ml HRP conjugated anti-β2m for 1 h at 37° C., washed again and detected with TMB solution that is stopped with […]. Absorption was measured at 450 nm.

Row | Binder | peptide exchange yield [%]
1 | TPLTRTTL | 50 to 75
2 | RAPLPLLLL | 50 to 75
3 | MPWVLMSPF | ≥ 75
4 | QPAPQPLL | 50 to 75
5 | RPWLSSPTGL | ≥ 75
6 | IPLHFSTAF | ≥ 75
7 | ASRIQVILL | 50 to 75
8 | MPAFLSRASAL | ≥ 75
9 | VVHGGMSIF | 20 to 50
10 | YPDVPIGQL | 50 to 75
11 | RPLILIRI | 20 to 50
12 | TPSHSTPSF | 50 to 75
13 | APGPRSQGL | 50 to 75
14 | VPHHLLSSV | ≥ 75
15 | LPVHGPLPLLL | 50 to 75
16 | RPSLPCRSF | 50 to 75
17 | IPISIFKMA | 50 to 75
18 | APSLARFLSL | ≥ 75
19 | MPIQVLKGL | ≥ 75

Row | Binder | peptide exchange yield [%]
20 | RPQGVGPAA | ≥ 75
21 | APLRAGWAA | ≥ 75
22 | LPALLRSL | ≥ 75
23 | SPSSNSREL | 50 to 75
24 | MPKLFLTAC | ≥ 75
25 | LPHPVNSGL | 50 to 75
26 | SPSSPLLLLA | 50 to 75
27 | RPIWDVRSA | ≥ 75
28 | SPAPSLARFLSL | ≥ 75
29 | YVGPTRLEL | ≥ 75
30 | SLRVPSPAL | 50 to 75
31 | NPELLVILL | 50 to 75
32 | HPRESLNMLVAF | ≥ 75
33 | APLLPGPAA | ≥ 75
34 | SPIGLSLIL | ≥ 75
35 | MPCTTILRI | ≥ 75
36 | RPSPVRVAAL | ≥ 75
37 | MPFLKVPPL | ≥ 75

biological target: T2, HLA-A*02:01 (human); assay: as above
T2 construct: Peptide-receptive MHC class I monomer in the UV-ligand exchange assay
Excerpt: as §1, §2

Row | Binder | peptide exchange yield [%]
38 | FLLLEKGGEL | ≥ 75
39 | ILVTAWKGV | 50 to 75
40 | LLGVVSHSV | ≥ 75
41 | ILMILQPQL | ≥ 75
42 | IQAPALLKV | ≥ 75
43 | GLLDAFLRL | ≥ 75
44 | GLLGTLRVL | ≥ 75
45 | SLQESLPNA | 50 to 75
46 | SLSKLVATV | ≥ 75
47 | ALIVLHLSL | 20 to 50
48 | ALGPMAFRV | ≥ 75
49 | VLQSLQHEL | ≥ 75
50 | SLKSSILFL | 50 to 75
51 | IIIDRILLL | ≥ 75
52 | LVFESVVAA | ≥ 75
53 | LLSRGILIL | ≥ 75
54 | HLFSVLSAI | ≥ 75
55 | ALNLSRLTV | ≥ 75
56 | TLNVLITL | 20 to 50
57 | FALGPIIKQL | 50 to 75
58 | RLLRLIPIL | ≥ 75
59 | KLPFFTNFL | ≥ 75
60 | RLQEGLAAL | ≥ 75
61 | YMLEMDNSMKI | ≥ 75
62 | ITPDSIPSV | 50 to 75
63 | SLFPISLTV | ≥ 75
64 | LLDSWNILI | ≥ 75

biological target: T3, HLA-A*24:02 (human); assay: allele assigned to HLA ligand eluted from tissue (IP, LC-MS)
T3 construct: Peptide-receptive MHC class I monomer in the UV-ligand exchange assay

Row | Binder | binding result
65 | IYLTKSNLVNM | binds
66 | LWEEKPVCL | binds
67 | TYLESSVRI | binds
68 | LYDTVTHTF | binds
